In the supplement of paper PMC5998384:

Legend:
[1] = tested on: HeLa Kyoto; assay: solubility in G1/S (NP-40 vs SDS abundance) (log2 ratio); higher = more soluble; details: cell cycle stage: G1/S
[2] = tested on: HeLa Kyoto; assay: melting temperature (median over replicates), in situ; higher = more thermally stable
[3] = tested on: HeLa Kyoto; assay: solubility change mitosis vs G1/S (difference of NP-40 vs SDS log2 ratios) (log2 ratio difference); higher = more soluble in mitosis
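Wherever melting temperature (median over replicates), in situ is given: HeLa Kyoto cells synchronized by double thymidine or nocodazole block, proteins quantified by TMT10plex mass spectrometry, three independent biological replicates.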
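Wherever solubility change mitosis vs G1/S (difference of NP-40 vs SDS log2 ratios) is given: synchronized HeLa Kyoto cells (double thymidine block for G1/S, nocodazole release for mitosis), protein amounts in NP-40 versus SDS lysates quantified by mass spectrometry, three biological replicates.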
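Wherever solubility in G1/S (NP-40 vs SDS abundance) is given: HeLa Kyoto cells arrested at G1/S by double thymidine block, proteins quantified by TMT10plex mass spectrometry in mild NP-40 versus SDS extracts, three biological replicates.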

| Sequence | solubility in G1/S (log2) [1] | melting temperature ([2]; cell cycle stage: G1/S) [°C] | solubility change mitosis (log2) [3] | melting temperature ([2]; cell cycle stage: mitosis) [°C] |
| --- | --- | --- | --- | --- |
| MQNEPLTPGYHGFPARDSQGNQEPTTTPDAMVQPFTTIPFPPPPQNGIPTEYGVPHTQDYAGQTGEHNLTLYGSTQAHGEQSSNSPSTQNGSLTTEGGAQTDGQQSQTQSSENSESKSTPKRLHVSNIPFRFRDPDLRQMFGQFGKILDVEIIFNERGSKGFGFVTFENSADADRAREKLHGTVVEGRKIEVNNATARVMTNKKMVTPYANGWKLSPVVGAVYGPELYAASSFQADVSLGNDAAVPLSGRGGINTYIPLISLPLVPGFPYPTAATTAAAFRGAHLRGRGRTVYGAVRAVPPTAIPAYPGVVYQDGFYGADLYGGYAAYRYAQPATATAATAAAAAAAAYSDGYGRVYTADPYHALAPAASYGVGAVASLYRGGYSRFAPY [RBFOX2] | 0.223 | 49.8 | 0.0624 | – |
| MAEYLASIFGTEKDKVNCSFYFKIGACRHGDRCSRLHNKPTFSQTIALLNIYRNPQNSSQSADGLRCAVSDVEMQEHYDEFFEEVFTEMEEKYGEVEEMNVCDNLGDHLVGNVYVKFRREEDAEKAVIDLNNRWFNGQPIHAELSPVTDFREACCRQYEMGECTRGGFCNFMHLKPISRELRRELYGRRRKKHRSRSRSRERRSRSRDRGRGGGGGGGGGGGGRERDRRRSRDRERSGRF [U2AF1] | -0.457 | 46.8 | 0.342 | 48.2 |
| MPNFCAAPNCTRKSTQSDLAFFRFPRDPARCQKWVENCRRADLEDKTPDQLNKHYRLCAKHFETSMICRTSPYRTVLRDNAIPTIFDLTSHLNNPHSRHRKRIKELSEDEIRTLKQKKIDETSEQEQKHKETNNSNAQNPSEEEGEGQDEDILPLTLEEKENKEYLKSLFEILILMGKQNIPLDGHEADEIPEGLFTPDNFQALLECRINSGEEVLRKRFETTAVNTLFCSKTQQRQMLEICESCIREETLREVRDSHFFSIITDDVVDIAGEEHLPVLVRFVDESHNLREEFIGFLPYEADAEILAVKFHTMITEKWGLNMEYCRGQAYIVSSGFSSKMKVVASRLLEKYPQAIYTLCSSCALNMWLAKSVPVMGVSVALGTIEEVCSFFHRSPQLLLELDNVISVLFQNSKERGKELKEICHSQWTGRHDAFEILVELLQALVLCLDGINSDTNIRWNNYIAGRAFVLCSAVSDFDFIVTIVVLKNVLSFTRAFGKNLQGQTSDVFFAAGSLTAVLHSLNEVMENIEVYHEFWFEEATNLATKLDIQMKLPGKFRRAHQGNLESQLTSESYYKETLSVPTVEHIIQELKDIFSEQHLKALKCLSLVPSVMGQLKFNTSEEHHADMYRSDLPNPDTLSAELHCWRIKWKHRGKDIELPSTIYEALHLPDIKFFPNVYALLKVLCILPVMKVENERYENGRKRLKAYLRNTLTDQRSSNLALLNINFDIKHDLDLMVDTYIKLYTSKSELPTDNSETVENT [PRKRIR] | 0.246 | 51.3 | -0.0658 | 50.9 |
| MAENREPRGAVEAELDPVEYTLRKRLPSRLPRRPNDIYVNMKTDFKAQLARCQKLLDGGARGQNACSEIYIHGLGLAINRAINIALQLQAGSFGSLQVAANTSTVELVDELEPETDTREPLTRIRNNSAIHIRVFRVTPK [POP7] | 0.19 | – | -0.0753 | 54.9 |
| MAAAAPNAGGSAPETAGSAEAPLQYSLLLQYLVGDKRQPRLLEPGSLGGIPSPAKSEEQKMIEKAMESCAFKAALACVGGFVLGGAFGVFTAGIDTNVGFDPKDPYRTPTAKEVLKDMGQRGMSYAKNFAIVGAMFSCTECLIESYRGTSDWKNSVISGCITGGAIGFRAGLKAGAIGCGGFAAFSAAIDYYLR [TIMM22] | 0.0827 | 56 | -0.0464 | 56.3 |
| MLRREARLRREYLYRKAREEAQRSAQERKERLRRALEENRLIPTELRREALALQGSLEFDDAGGEGVTSHVDDEYRWAGVEDPKVMITTSRDPSSRLKMFAKELKLVFPGAQRMNRGRHEVGALVRACKANGVTDLLVVHEHRGTPVGLIVSHLPFGPTAYFTLCNVVMRHDIPDLGTMSEAKPHLITHGFSSRLGKRVSDILRYLFPVPKDDSHRVITFANQDDYISFRHHVYKKTDHRNVELTEVGPRFELKLYMIRLGTLEQEATADVEWRWHPYTNTARKRVFLSTE [IMP4] | -1.9 | – | 0.914 | 51.4 |
| MGRKVTVATCALNQWALDFEGNLQRILKSIEIAKNRGARYRLGPELEICGYGCWDHYYESDTLLHSFQVLAALVESPVTQDIICDVGMPVMHRNVRYNCRVIFLNRKILLIRPKMALANEGNYRELRWFTPWSRSRHTEEYFLPRMIQDLTKQETVPFGDAVLVTWDTCIGSEICEELWTPHSPHIDMGLDGVEIITNASGSHQVLRKANTRVDLVTMVTSKNGGIYLLANQKGCDGDRLYYDGCAMIAMNGSVFAQGSQFSLDDVEVLTATLDLEDVRSYRAEISSRNLAASRASPYPRVKVDFALSCHEDLLAPISEPIEWKYHSPEEEISLGPACWLWDFLRRSQQAGFLLPLSGGVDSAATACLIYSMCCQVCEAVRSGNEEVLADVRTIVNQISYTPQDPRDLCGRILTTCYMASKNSSQETCTRARELAQQIGSHHISLNIDPAVKAVMGIFSLVTGKSPLFAAHGGSSRENLALQNVQARIRMVLAYLFAQLSLWSRGVHGGLLVLGSANVDESLLGYLTKYDCSSADINPIGGISKTDLRAFVQFCIQRFQLPALQSILLAPATAELEPLADGQVSQTDEEDMGMTYAELSVYGKLRKVAKMGPYSMFCKLLGMWRHICTPRQVADKVKRFFSKYSMNRHKMTTLTPAYHAENYSPEDNRFDLRPFLYNTSWPWQFRCIENQVLQLERAEPQSLDGVD [NADSYN1] | 0.157 | – | -0.234 | 56.3 |
| MANSANTNTVPKLYRSVIEDVINDVRDIFLDDGVDEQVLMELKTLWENKLMQSRAVDGFHSEEQQLLLQVQQQHQPQQQQHHHHHHHQQAQPQQTVPQQAQTQQVLIPASQQATAPQVIVPDSKLIQHMNASNMSAAATAATLALPAGVTPVQQILTNSGQLLQVVRAANGAQYIFQPQQSVVLQQQVIPQMQPGGVQAPVIQQVLAPLPGGISPQTGVIIQPQQILFTGNKTQVIPTTVAAPTPAQAQITATGQQQPQAQPAQTQAPLVLQVDGTGDTSSEEDEDEEEDYDDDEEEDKEKDGAEDGQVEEEPLNSEDDVSDEEGQELFDTENVVVCQYDKIHRSKNKWKFHLKDGIMNLNGRDYIFSKAIGDAEW [GTF2A1] | -0.719 | 56.2 | 0.475 | 57.2 |
| MSATRAKKVKMATKSCPECDQQVPVACKSCPCGYIFISRKLLNAKHSEKSPPSTENKHEAKRRRTERVRREKINSTVNKDLENRKRSRSNSHSDHIRRGRGRPKSASAKKHEEEREKQEKEIDIYANLSDEKAFVFSVALAEINRKIINQRLIL [C16ORF87] | 0.019 | – | 0.198 | 50.6 |
| MGEEANDDKKPTTKFELERETELRFEVEASQSVQLELLTGMAEIFGTELTRNKKFTFDAGAKVAVFTWHGCSVQLSGRTEVAYVSKDTPMLLYLNTHTALEQMRRQAEKEEERGPRVMVVGPTDVGKSTVCRLLLNYAVRLGRRPTYVELDVGQGSVSIPGTMGALYIERPADVEEGFSIQAPLVYHFGSTTPGTNIKLYNKITSRLADVFNQRCEVNRRASVSGCVINTCGWVKGSGYQALVHAASAFEVDVVVVLDQERLYNELKRDLPHFVRTVLLPKSGGVVERSKDFRRECRDERIREYFYGFRGCFYPHAFNVKFSDVKIYKVGAPTIPDSCLPLGMSQEDNQLKLVPVTPGRDMVHHLLSVSTAEGTEENLSETSVAGFIVVTSVDLEHQVFTVLSPAPRPLPKNFLLIMDIRFMDLK [CLP1] | -0.181 | 46.9 | -0.0019 | 48.8 |
| MDNLSSEEIQQRAHQITDESLESTRRILGLAIESQDAGIKTITMLDEQKEQLNRIEEGLDQINKDMRETEKTLTELNKCCGLCVCPCNRTKNFESGKAYKTTWGDGGENSPCNVVSKQPGPVTNGQLQQPTTGAASGGYIKRITNDAREDEMEENLTQVGSILGNLKDMALNIGNEIDAQNPQIKRITDKADTNRDRIDIANARAKKLIDS [SNAP23] | -0.00465 | 54.8 | 0.381 | 54 |
| MADSSPALSLREGGPRAPRPSAPSPPPRSRSGSESEEAELSLSLARTKTRSYGSTASVRAPLGAGVIERHVEHRVRAGDTLQGIALKYGVTMEQIKRANKLFTNDCIFLKKTLNIPVISEKPLLFNGLNSIDSPENETADNSFSQEEEPVVAGEDLPPPSPQESDVQPVQPEEVSARDFLQRLDLQIKLSTQAAKKLKEESRDEESPYATSLYHS [LYSMD2] | 0.0316 | 52 | -0.0367 | 51.8 |
| MAGQHLPVPRLEGVSREQFMQHLYPQRKPLVLEGIDLGPCTSKWTVDYLSQVGGKKEVKIHVAAVAQMDFISKNFVYRTLPFDQLVQRAAEEKHKEFFVSEDEKYYLRSLGEDPRKDVADIRKQFPLLKGDIKFPEFFKEEQFFSSVFRISSPGLQLWTHYDVMDNLLIQVTGKKRVVLFSPRDAQYLYLKGTKSEVLNIDNPDLAKYPLFSKARRYECSLEAGDVLFIPALWFHNVISEEFGVGVNIFWKHLPSECYDKTDTYGNKDPTAASRAAQILDRALKTLAELPEEYRDFYARRMVLHIQDKAYSKNSE [TYW5] | -0.0115 | 53.8 | -0.114 | 53.8 |
| MRDYDEVTAFLGEWGPFQRLIFFLLSASIIPNGFTGLSSVFLIATPEHRCRVPDAANLSSAWRNHTVPLRLRDGREVPHSCRRYRLATIANFSALGLEPGRDVDLGQLEQESCLDGWEFSQDVYLSTIVTEWNLVCEDDWKAPLTISLFFVGVLLGSFISGQLSDRFGRKNVLFVTMGMQTGFSFLQIFSKNFEMFVVLFVLVGMGQISNYVAAFVLGTEILGKSVRIIFSTLGVCIFYAFGYMVLPLFAYFIRDWRMLLVALTMPGVLCVALWWFIPESPRWLISQGRFEEAEVIIRKAAKANGIVVPSTIFDPSELQDLSSKKQQSHNILDLLRTWNIRMVTIMSIMLWMTISVGYFGLSLDTPNLHGDIFVNCFLSAMVEVPAYVLAWLLLQYLPRRYSMATALFLGGSVLLFMQLVPPDLYYLATVLVMVGKFGVTAAFSMVYVYTAELYPTVVRNMGVGVSSTASRLGSILSPYFVYLGAYDRFLPYILMGSLTILTAILTLFLPESFGTPLPDTIDQMLRVKGMKHRKTPSHTRMLKDGQERPTILKSTAF [SLC22A5] | 0.228 | 59.7 | -0.137 | 56.9 |
| MSDCYTELEKAVIVLVENFYKYVSKYSLVKNKISKSSFREMLQKELNHMLSDTGNRKAADKLIQNLDANHDGRISFDEYWTLIGGITGPIAKLIHEQEQQSSS [S100A16] | -0.172 | 51.3 | 0.301 | – |
